T1: VEGF (Example 4) (UniProt P15692 27-191)
T1 chain: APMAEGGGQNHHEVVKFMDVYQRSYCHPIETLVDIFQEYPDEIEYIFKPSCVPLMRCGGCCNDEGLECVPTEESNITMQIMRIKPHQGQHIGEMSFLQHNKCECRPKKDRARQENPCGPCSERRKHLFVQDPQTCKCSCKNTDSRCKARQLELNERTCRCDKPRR

T2: Placenta Growth Factor (PlGF), human (human, UniProt P49763 21-149)
T2 chain: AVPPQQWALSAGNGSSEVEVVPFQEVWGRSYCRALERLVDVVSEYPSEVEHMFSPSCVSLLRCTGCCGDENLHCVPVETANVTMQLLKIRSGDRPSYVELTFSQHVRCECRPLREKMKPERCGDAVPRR


Legend:
ErbB3 = ErbB3 (UniProt P21860 20-643); experiment: binding
VEGF (Example 4) [1] = biological target: T1, VEGF (Example 4); experiment: binding
VEGF (Example 4) [2] = biological target: T1, VEGF (Example 4); experiment: VEGF-KDR inhibition
[3] = biological target: T2, Placenta Growth Factor (PlGF), human; experiment: ELISA
[4] = biological target: Hepatocyte Growth Factor (HGF), human (human, UniProt P14210 32-728); experiment: ELISA
Chain of Hepatocyte Growth Factor (HGF), human (P14210 32-728): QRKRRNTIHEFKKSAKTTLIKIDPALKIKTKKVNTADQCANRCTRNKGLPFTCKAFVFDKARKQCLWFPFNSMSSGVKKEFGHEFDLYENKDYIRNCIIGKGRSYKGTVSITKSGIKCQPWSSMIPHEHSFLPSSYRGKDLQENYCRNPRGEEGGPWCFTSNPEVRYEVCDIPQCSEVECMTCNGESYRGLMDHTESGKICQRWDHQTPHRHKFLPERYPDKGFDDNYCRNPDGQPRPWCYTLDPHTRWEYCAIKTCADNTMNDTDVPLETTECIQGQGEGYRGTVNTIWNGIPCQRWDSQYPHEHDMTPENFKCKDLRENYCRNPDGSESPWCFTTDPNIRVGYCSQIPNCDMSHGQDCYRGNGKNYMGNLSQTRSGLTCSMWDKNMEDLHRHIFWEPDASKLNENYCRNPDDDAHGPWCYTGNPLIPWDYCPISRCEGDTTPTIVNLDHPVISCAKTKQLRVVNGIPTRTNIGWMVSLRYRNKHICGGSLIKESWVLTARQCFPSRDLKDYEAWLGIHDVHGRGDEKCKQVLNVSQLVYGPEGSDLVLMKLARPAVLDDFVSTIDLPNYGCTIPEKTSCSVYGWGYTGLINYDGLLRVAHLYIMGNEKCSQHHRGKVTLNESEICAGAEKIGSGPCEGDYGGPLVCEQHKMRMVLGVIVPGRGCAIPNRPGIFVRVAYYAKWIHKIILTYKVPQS

Chain of ErbB3 (P21860 20-643): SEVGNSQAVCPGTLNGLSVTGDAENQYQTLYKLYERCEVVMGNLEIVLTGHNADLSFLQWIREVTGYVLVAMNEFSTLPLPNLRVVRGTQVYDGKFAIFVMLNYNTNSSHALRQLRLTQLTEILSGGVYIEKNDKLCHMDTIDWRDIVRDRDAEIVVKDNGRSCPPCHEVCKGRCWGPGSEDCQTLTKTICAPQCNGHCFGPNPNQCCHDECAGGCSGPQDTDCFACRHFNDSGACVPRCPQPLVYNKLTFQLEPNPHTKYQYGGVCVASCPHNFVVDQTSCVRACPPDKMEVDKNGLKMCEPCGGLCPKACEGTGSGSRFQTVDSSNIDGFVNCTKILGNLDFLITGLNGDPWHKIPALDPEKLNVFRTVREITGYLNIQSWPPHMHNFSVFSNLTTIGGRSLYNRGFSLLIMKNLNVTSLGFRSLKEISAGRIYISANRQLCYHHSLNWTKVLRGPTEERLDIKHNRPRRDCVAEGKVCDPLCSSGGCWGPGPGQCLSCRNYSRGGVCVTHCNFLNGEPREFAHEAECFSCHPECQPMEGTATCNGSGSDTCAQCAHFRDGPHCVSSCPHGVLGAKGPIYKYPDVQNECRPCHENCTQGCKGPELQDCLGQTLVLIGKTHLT

EC50 (ErbB3) | EC50 (VEGF (Example 4) [1]) | IC50 (VEGF (Example 4) [2]) | EC50 [3] | EC50 [4] | Binder
0.048 nM | 0.012 nM | 0.589 nM | – | – | 6 (antibody, V domains shown) V domain 1: PQPVLHQPPAMSSALGTTIRLTCTLRNDHDIGVYSVYWYQQRPGHPPRFLLRYFSQSDKSQGPQVPPRFSGSKDVARNRGYLSISELQPEDEAMYYCAMGARSSVTHVFGSGTQLTVLS V domain 2: QPVLHQPPAMSSALGTTIRLTCTLRNDHDIGVYSVYWYQQRPGHPPRFLLRYFSQSDKSQGPQVPPRFSGSKDVARNRGYLSISELQPEDEAMYYCAMGARSSVTHVFGSGTQLTVLS
0.037 nM | 0.013 nM | 0.362 nM | – | – | 7 (antibody, V domains shown) V domain 1: PQPVLHQPPAMSSALGTTIRLTCTLRNDHDIGVYSVYWYQQRPGHPPRFLLRYFSQSDKSQGPQVPPRFSGSKDVARNRGYLSISELQPEDEAMYYCAMGARSSVTHVFGSGTQLTVLS V domain 2: QPVLHQPPAMSSALGTTIRLTCTLRNDHDIGVYSVYWYQQRPGHPPRFLLRYFSQSDKSQGPQVPPRFSGSKDVARNRGYLSISELQPEDEAMYYCAMGARSSVTHVFGSGTQLTVLS
– | – | – | 0.18 nM | 0.061 nM | HC 4/SLC 8 (antibody) chain 1: GQGTLVTVSSASTKQPVLHQPPAMSSALGTTIRLTCTLRNDHDIGVYSVYWYQQRPGHPPRFLLRYFSQSDKSQGPQVPPRFSGSKDVARNRGYLSISELQPEDEAMYYCAMGARSRCWPRGFQSKHNSVTHVFGSGTQLTVLSQPKATPSVTLFPPSSEELQANKATLVCLMNDFYPGILTVTWKADGTPITQGVEMTTPSKQSNNKYAASSYLSLTPEQWRSRRSYSCQVMHEGSTVEKTVAPAECS chain 2: MSWAPVLLMLFVYCTGCGPQPVLHQPPAMSSALGTTIRLTCTLRNDHDIGVYSVYWYQQRPGHPPRFLLRYFSQSDKSQGPQVPPRFSGSKDVARNRGYLSISVTHVFGSGTQLTVLSQPKATPSQVQLVQ
– | – | – | 0.2 nM | 0.057 nM | HC 7/SLC 2 (antibody) chain 1: GQGTLVTVSSASTKGPSQPVLHQPPAMSSALGTTIRLTCTLRNDHDIGVYSVYWYQQRPGHPPRFLLRYFSQSDKSQGPQVPPRFSGSKDVARNRGYLSISELQPEDEAMYYCAMGARSRCWPRGFQSKHNSVTHVFGSGTQLTVLSQPKATPSVTLFPPSSEELQANKATLVCLMNDFYPGILTVTWKADGTPITQGVEMTTPSKQSNNKYAASSYLSLTPEQWRSRRSYSCQVMHEGSTVEKTVAPAECS chain 2: MSWAPVLLMLFVYCTGCGPQPVLHQPPAMSSALGTTIRLTCTLRNDHDIGVYSVYWYQQRPGHPPRFLLRYFSQSDKSQGPQVPPRFSGSKDVARNRGYLSISVTHVFGSGTQLTVLSQQVQLVQ

The remaining lines, values behind:

Binder | EC50 (ErbB3) | EC50 (VEGF (Example 4) [1]) | IC50 (VEGF (Example 4) [2]) | EC50 [3] | EC50 [4]
2 (antibody, V domains shown) V domain 1: FQPVLHQPPAMSSALGTTIRLTCTLRNDHDIGVYSVYWYQQRPGHPPRFLLRYFSQSDKSQGPQVPPRFSGSKDVARNRGYLSISELQPEDEAMYYCAMGARSSVTHVFGSGTQLTVLS V domain 2: QPVLHQPPAMSSALGTTIRLTCTLRNDHDIGVYSVYWYQQRPGHPPRFLLRYFSQSDKSQGPQVPPRFSGSKDVARNRGYLSISELQPEDEAMYYCAMGARSSVTHVFGSGTQLTVLS | 0.051 nM | 0.016 nM | 0.391 nM | – | –
4 (antibody, V domains shown) V domain 1: FQPVLHQPPAMSSALGTTIRLTCTLRNDHDIGVYSVYWYQQRPGHPPRFLLRYFSQSDKSQGPQVPPRFSGSKDVARNRGYLSISELQPEDEAMYYCAMGARSSVTHVFGSGTQLTVLS V domain 2: QPVLHQPPAMSSALGTTIRLTCTLRNDHDIGVYSVYWYQQRPGHPPRFLLRYFSQSDKSQGPQVPPRFSGSKDVARNRGYLSISELQPEDEAMYYCAMGARSSVTHVFGSGTQLTVLS | 0.046 nM | 0.015 nM | 0.449 nM | – | –
5 (antibody, V domains shown) V domain 1: PQPVLHQPPAMSSALGTTIRLTCTLRNDHDIGVYSVYWYQQRPGHPPRFLLRYFSQSDKSQGPQVPPRFSGSKDVARNRGYLSISELQPEDEAMYYCAMGARSSVTHVFGSGTQLTVLS V domain 2: QPVLHQPPAMSSALGTTIRLTCTLRNDHDIGVYSVYWYQQRPGHPPRFLLRYFSQSDKSQGPQVPPRFSGSKDVARNRGYLSISELQPEDEAMYYCAMGARSSVTHVFGSGTQLTVLS | 0.058 nM | 0.012 nM | 0.409 nM | – | –
3 (antibody, V domains shown) V domain 1: FQPVLHQPPAMSSALGTTIRLTCTLRNDHDIGVYSVYWYQQRPGHPPRFLLRYFSQSDKSQGPQVPPRFSGSKDVARNRGYLSISELQPEDEAMYYCAMGARSSVTHVFGSGTQLTVLS V domain 2: QPVLHQPPAMSSALGTTIRLTCTLRNDHDIGVYSVYWYQQRPGHPPRFLLRYFSQSDKSQGPQVPPRFSGSKDVARNRGYLSISELQPEDEAMYYCAMGARSSVTHVFGSGTQLTVLS | 0.05 nM | 0.015 nM | 0.429 nM | – | –

— patent publication US20150045540A1 (published 2015)
